Residue numbers refer to the chain shown, from its start. Each block holds one binder with its values, some of them ahead of it.
Tests used:
[1] = target: T1, MICA*008 on MEL-JUSO cells (human, UniProt Q29983 24-317); test: cell-based or functional assay
T1 chain: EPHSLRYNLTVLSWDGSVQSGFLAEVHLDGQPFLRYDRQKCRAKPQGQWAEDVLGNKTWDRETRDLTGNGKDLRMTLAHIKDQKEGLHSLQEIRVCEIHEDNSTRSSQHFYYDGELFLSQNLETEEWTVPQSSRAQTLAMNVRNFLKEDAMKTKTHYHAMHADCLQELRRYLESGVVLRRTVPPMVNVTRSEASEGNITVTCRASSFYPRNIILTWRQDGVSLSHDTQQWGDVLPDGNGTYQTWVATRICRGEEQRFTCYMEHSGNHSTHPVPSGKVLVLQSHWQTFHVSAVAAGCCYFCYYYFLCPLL

[2] = target: MICA*004 on HCC1534 cells (human, UniProt Q29983 24-383); test: cell-based or functional assay
[3] = target: MICB*005 on HCC1534 cells (human); test: cell-based or functional assay
huMICA*002 alpha 3-his = target: T2, huMICA*002 alpha 3-his (human); test: SPR, Biacore 8K, antibody on Protein A chip
T2 construct: whole construct entry: GS, alpha 3 domain, GNS, His8; also called MICA002.His; MICA*002 alpha3 construct
T2 chain: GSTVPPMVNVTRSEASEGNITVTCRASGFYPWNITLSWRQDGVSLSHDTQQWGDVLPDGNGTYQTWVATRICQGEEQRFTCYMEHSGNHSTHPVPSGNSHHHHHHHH
Description: (§1) A Protein A sensorchip (GE Healthcare) was used following manufacturer provided protocols to capture humanized anti-MICA/B antibodies. The MICA/B alleles were passed over. Antibody binding was measured to human MICA 002, 004, 008 and MICB 005 alpha 3 domains (His tagged, in-house). Sensograms for binding of MICA/B were recorded using an injection time of 2 minutes with a flow rate of 30 ml/min, at a temperature of 25° C., and with a running buffer of 10 mM HEPES, pH 7.4, 150 mM NaCl, 3mM EDTA, and 0.005% Tween 20. After injection, disassociation of the alpha 3 domain from the antibody was monitored for 10 minutes in running buffer. The surface was regenerated between binding cycles with a 60 ul injection of 10 mM Glycine HCl pH 1.5. […] The data was analyzed using a 1:1 binding model. Sensograms of MICA alleles binding to captured anti-MICA antibody were used to calculate the dissociation constant (Kd).

huMICA*004 alpha 3-his = target: T3, huMICA*004 alpha 3-his (human); test: SPR, Biacore 8K, antibody on Protein A chip
T3 construct: whole construct entry: GS, alpha 3 domain, GNS, His8; also called MICA004.His; MICA*004 alpha3 construct
T3 chain: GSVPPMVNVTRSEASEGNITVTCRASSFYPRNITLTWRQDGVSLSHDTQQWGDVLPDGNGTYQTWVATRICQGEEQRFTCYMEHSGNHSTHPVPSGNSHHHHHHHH
Description: as §1

huMICA*008 alpha 3-his = target: T4, huMICA*008 alpha 3-his (human); test: SPR, Biacore 8K, antibody on Protein A chip
T4 construct: whole construct entry: GS, alpha 3 domain (Thr204-Ser297), GNS, His8; also the construct of the FPOP experiment; also called MICA008.His; MICA*008 alpha3 construct
T4 chain: T2 chain with G28S, W32R, T35I, S37T, Q73R
Description: as §1

huMICB*005 alpha 3-his = target: T5, huMICB*005 alpha 3-his (human); test: SPR, Biacore 8K, antibody on Protein A chip
T5 construct: whole construct entry: GS, alpha 3 domain, GNS, His8; also called MICB005.His; MICB*005 alpha3 construct
T5 chain: T2 chain with R12C, A15V, G28S, W32R, S37T, D48N, C72R, S90G
Description: as §1
Wherever % Inhibition is given: test concentration or dose not given here.

B1: 6E1 (m IgG2a, CHO) (antibody, V domains shown)
VH: QGQMQQSGAELVKPGASVKLSCKTSGFTFSDNYISWLKQKPGQSLEWIAWIYAGTGGSSYNQKFRDKAQLTVDTSSRTAYMQLSSLTTEDSAIYYCARHDYYGTSGAWFAYWGRGTLVTVSA
VL: DVLMTQTPLSLPVSLGDQASISCRSSQHIVHSNENTYLEWYLQKPGQSPKLLIYKVSNRFSGVPDRFSGSGSGTDFTLKISRVEAEDLGVYYCFQGSHVPWTFGGGTKVEIK
% Inhibition [1]: 36%
% Inhibition [2]: 40%
% Inhibition [3]: 47%

B3: 13A9 (m IgG2a, CHO) (antibody, V domains shown)
VH: QVQLQQSGAELVRPGTSVKVSCKASGYAFTNYLIEWVKQRPGQGLEWIGAINPGSGATNYNEKFKDKARLTADKSSNTAYLQFSSLTSDDSAVYFCARFLGNYFDNWGQGATLTVSS
VL: DIQMTQSPASLSASVGETVTITCRASGNIHSYLAWYQQKQGKSPQLLVYYAETLADGVPSRFSGRGSGTQYSLKINSLQPEDFGSYFCQQFWTTPYTFGGGTKVEIK
% Inhibition [1]: 29%
% Inhibition [2]: 34%
% Inhibition [3]: 60%

B5: 15F11 (m IgG2a, CHO) (antibody, V domains shown)
VH: EIQLQQSGPELVKPGASVRVSCKPSGYAFTSNNIYWVKQSRRKSLEWIGYIDPYIGRIIYNQQFKDKATLTVDKSSSTAYMHLNSLTSEDSAVYYCSRSGERSNFDYWGQGTTLTVSS
VL: EIVLTQSPTAMAASPGEKITITCSASSSISSNYLHWYQQKPGFSPKLLIYRTSNLASGVPARFSGSGSGTSYSLTIGPMEAEDVATYYCQQGGSLPLTFGAGTKVEIK
% Inhibition [1]: 69%
% Inhibition [2]: 60%
% Inhibition [3]: 57%

B6: 1D5 (m IgG2a, CHO) (antibody, V domains shown)
VH: EIQLQQSGPELVKPGASVKVSCKASGYAFTSQNIYWVKQSHGKSLEWIGYIEPYNVVPMYNPKFKGKATLTVDKSSSSAYIHLNSLTSEDSAIYYCARSGSSNFDYWGQGTTLTVSS
VL: B5 VL with V3I, A10T, N32H, P41S, P78T, G93S
% Inhibition [1]: 74%
% Inhibition [2]: 59%
% Inhibition [3]: 76%

B7: 1D5v1 (antibody, IgG1, V domains shown)
VH: EIQLVQSGAEVKKPGASVKVSCKASGYAFTSQNIYWVRQAPGQGLEWIGYIEPYNVVPMYNPKFKGRATLTVDKSTSTAYMELRSLRSDDTAVYYCARSGSSNFDYWGQGTLVTVSS
VL: EIVLTQSPDFQSVTPKEKVTITCSASSSISSHYLHWYQQKPDQSPKLLIYRTSNLASGVPSRFSGSGSGTDYTLTINSLEAEDAATYYCQQGSSLPLTFGQGTKVEIK
notes: humanized variant of 1D5; also called lD5v1
% Inhibition [1]: 52%
% Inhibition [2]: 54%
% Inhibition [3]: 41%
Kd (huMICA*002 alpha 3-his): 1.4 nM
Kd (huMICA*004 alpha 3-his): 1.17 nM
Kd (huMICA*008 alpha 3-his): 0.96 nM
Kd (huMICB*005 alpha 3-his): 1.96 nM

B8: 1D5v11 (antibody, IgG1, V domains shown)
VH: B7 VH with M81L, R84S, D89E
VL: DIQLTQSPSSLSASVGDRVTITCSASSSISSHYLHWYQQKPGKSPKLLIYRTSNLASGVPSRFSGSGSGTDYTLTISSLQPEDFATYYCQQGSSLPLTFGQGTKVEIK
notes: humanized variant of 1D5
% Inhibition [1]: 56%
% Inhibition [2]: 52%
% Inhibition [3]: 36%
Kd (huMICA*002 alpha 3-his): 1.09 nM
Kd (huMICA*004 alpha 3-his): 0.83 nM
Kd (huMICA*008 alpha 3-his): 0.78 nM
Kd (huMICB*005 alpha 3-his): 1.38 nM

B10: 1D5v8 (antibody, IgG1, V domains shown)
VH: B7 VH with I2V, A68V, L70I, V72R, K74T, M81L, R84S, D89E
VL: B7 VL with Y50K, Y72F
notes: humanized variant of 1D5
% Inhibition [1]: 52%
% Inhibition [2]: 42%
% Inhibition [3]: 35%
Kd (huMICA*002 alpha 3-his): 11.3 nM
Kd (huMICA*004 alpha 3-his): 9.41 nM
Kd (huMICA*008 alpha 3-his): 9.08 nM
Kd (huMICB*005 alpha 3-his): 18.8 nM

Further binders by falling Kd (huMICA*002 alpha 3-his), results first:

% Inhibition [1]: 43%
% Inhibition [2]: 46%
% Inhibition [3]: 34%
Kd (huMICA*002 alpha 3-his): 6.63 nM
Kd (huMICA*004 alpha 3-his): 6.2 nM
Kd (huMICA*008 alpha 3-his): 7.45 nM
Kd (huMICB*005 alpha 3-his): 16.2 nM
B11: 1D5v4 (antibody, IgG1, V domains shown)
VH: B7 VH with I2V, A68V, L70I, V72R, K74T, M81L, R84S, D89E
VL: B7 VL
notes: humanized variant of 1D5

% Inhibition [1]: -7%
% Inhibition [2]: 21%
% Inhibition [3]: 61%
Kd (huMICA*002 alpha 3-his): 4.82 nM
Kd (huMICA*004 alpha 3-his): 6.77 nM
Kd (huMICA*008 alpha 3-his): 2.35 nM
Kd (huMICB*005 alpha 3-his): 2.35 nM
B2: 13A9 (antibody, V domains shown)
VH: B3 VH
VL: B3 VL
notes: mouse variable domains

% Inhibition [1]: 51%
% Inhibition [2]: 47%
% Inhibition [3]: 37%
Kd (huMICA*002 alpha 3-his): 3.69 nM
Kd (huMICA*004 alpha 3-his): 2.91 nM
Kd (huMICA*008 alpha 3-his): 2.61 nM
Kd (huMICB*005 alpha 3-his): 6.15 nM
B14: 1D5v6 (antibody, IgG1, V domains shown)
VH: B7 VH with I2V, I48M, A68V, L70M, V72T, K74T
VL: B7 VL with Y50K, Y72F
notes: humanized variant of 1D5

% Inhibition [1]: 36%
% Inhibition [2]: 39%
% Inhibition [3]: 32%
Kd (huMICA*002 alpha 3-his): 2.59 nM
Kd (huMICA*004 alpha 3-his): 2.13 nM
Kd (huMICA*008 alpha 3-his): 1.64 nM
Kd (huMICB*005 alpha 3-his): 3.99 nM
B15: 1D5v5 (antibody, IgG1, V domains shown)
VH: B7 VH
VL: B7 VL with Y50K, Y72F
notes: humanized variant of 1D5

% Inhibition [1]: 50%
% Inhibition [2]: 54%
% Inhibition [3]: 43%
Kd (huMICA*002 alpha 3-his): 2.21 nM
Kd (huMICA*004 alpha 3-his): 1.31 nM
Kd (huMICA*008 alpha 3-his): 0.79 nM
Kd (huMICB*005 alpha 3-his): 2.28 nM
B4: 15F11 (antibody, V domains shown)
VH: B5 VH
VL: B5 VL
notes: mouse variable domains

% Inhibition [1]: 51%
% Inhibition [2]: 48%
% Inhibition [3]: 42%
Kd (huMICA*002 alpha 3-his): 2.21 nM
Kd (huMICA*004 alpha 3-his): 1.67 nM
Kd (huMICA*008 alpha 3-his): 1.7 nM
Kd (huMICB*005 alpha 3-his): 3.31 nM
B12: 1D5v7 (antibody, IgG1, V domains shown)
VH: B7 VH with M81L, R84S, D89E
VL: B7 VL with Y50K, Y72F
notes: humanized variant of 1D5

% Inhibition [1]: 33%
% Inhibition [2]: 38%
% Inhibition [3]: 26%
Kd (huMICA*002 alpha 3-his): 1.69 nM
Kd (huMICA*004 alpha 3-his): 1.34 nM
Kd (huMICA*008 alpha 3-his): 0.89 nM
Kd (huMICB*005 alpha 3-his): 2.69 nM
B13: 1D5v2 (antibody, IgG1, V domains shown)
VH: B7 VH with I2V, I48M, A68V, L70M, V72T, K74T
VL: B7 VL
notes: humanized variant of 1D5

Kd (huMICA*002 alpha 3-his): 1.62 nM
Kd (huMICA*004 alpha 3-his): 1.23 nM
Kd (huMICA*008 alpha 3-his): 1.16 nM
Kd (huMICB*005 alpha 3-his): 2.14 nM
B16: 1D5v14 (antibody, IgG1, V domains shown)
VH: B7 VH with I2V, I48M, A68V, L70M, V72T, K74T
VL: B8 VL with L4M, S44A, Y72F
notes: humanized variant of 1D5; also called 1D5v14 second data point

% Inhibition [1]: 50%
% Inhibition [2]: 56%
% Inhibition [3]: 38%
Kd (huMICA*002 alpha 3-his): 1.21 nM
Kd (huMICA*004 alpha 3-his): 0.96 nM
Kd (huMICA*008 alpha 3-his): 0.85 nM
Kd (huMICB*005 alpha 3-his): 1.78 nM
B9: 1D5v3 (antibody, IgG1, V domains shown)
VH: B7 VH with M81L, R84S, D89E
VL: B7 VL
notes: humanized variant of 1D5
